{"source": "patent US10562947B2", "about": "“Compositions and methods for preventing or treating diseases, conditions or processes characterized by aberrant fibroblast proliferation and extracellular matrix deposition” (MOERAE MATRIX, INC., priority 2011, dated 2020)", "assay_in_all_cases": "Kinase Profiling Assay", "type_in_all_cases": "biochemical", "details_in_all_cases": "100 μM peptide", "key": {"CDK1/cyclinB(h)": {"molecular_target": "CDK1/cyclinB(h) (Homo sapiens, UniProt P06493)", "sequence (P06493 whole entry)": "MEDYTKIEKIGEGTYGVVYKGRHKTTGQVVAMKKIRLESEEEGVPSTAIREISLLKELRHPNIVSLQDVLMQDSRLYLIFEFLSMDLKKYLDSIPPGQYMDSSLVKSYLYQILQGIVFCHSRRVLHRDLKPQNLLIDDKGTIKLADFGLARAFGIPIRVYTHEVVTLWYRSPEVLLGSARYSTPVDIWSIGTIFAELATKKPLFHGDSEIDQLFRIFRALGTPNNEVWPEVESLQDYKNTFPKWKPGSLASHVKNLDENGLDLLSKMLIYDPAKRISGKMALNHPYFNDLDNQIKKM", "sequence (P14635 whole entry partner)": "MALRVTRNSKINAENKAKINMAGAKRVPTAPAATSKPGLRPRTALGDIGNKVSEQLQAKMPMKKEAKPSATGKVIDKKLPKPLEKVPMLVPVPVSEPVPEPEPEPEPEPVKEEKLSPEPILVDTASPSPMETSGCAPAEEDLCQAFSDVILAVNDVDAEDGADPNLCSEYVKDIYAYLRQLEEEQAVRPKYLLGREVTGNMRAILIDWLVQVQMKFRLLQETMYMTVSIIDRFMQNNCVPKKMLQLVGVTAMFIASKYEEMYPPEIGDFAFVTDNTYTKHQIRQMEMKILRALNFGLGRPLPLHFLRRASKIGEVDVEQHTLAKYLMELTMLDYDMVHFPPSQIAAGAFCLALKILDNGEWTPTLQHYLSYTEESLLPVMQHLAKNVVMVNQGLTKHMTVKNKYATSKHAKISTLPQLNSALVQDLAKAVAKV", "description": "(§1) Every kinase activity measurement was conducted in duplicate.\n(§2) In addition to determining the IC50 of the compound, the specificity of MK2 inhibitory peptides was assessed by examining activities of all 266 human kinases available for testing in the Millipore kinase profiling service (Table 1)."}, "CHK2(I157T)(h)": {"molecular_target": "CHK2(I157T)(h) (Homo sapiens, UniProt O96017, I157T)", "sequence (O96017 whole entry I157T)": "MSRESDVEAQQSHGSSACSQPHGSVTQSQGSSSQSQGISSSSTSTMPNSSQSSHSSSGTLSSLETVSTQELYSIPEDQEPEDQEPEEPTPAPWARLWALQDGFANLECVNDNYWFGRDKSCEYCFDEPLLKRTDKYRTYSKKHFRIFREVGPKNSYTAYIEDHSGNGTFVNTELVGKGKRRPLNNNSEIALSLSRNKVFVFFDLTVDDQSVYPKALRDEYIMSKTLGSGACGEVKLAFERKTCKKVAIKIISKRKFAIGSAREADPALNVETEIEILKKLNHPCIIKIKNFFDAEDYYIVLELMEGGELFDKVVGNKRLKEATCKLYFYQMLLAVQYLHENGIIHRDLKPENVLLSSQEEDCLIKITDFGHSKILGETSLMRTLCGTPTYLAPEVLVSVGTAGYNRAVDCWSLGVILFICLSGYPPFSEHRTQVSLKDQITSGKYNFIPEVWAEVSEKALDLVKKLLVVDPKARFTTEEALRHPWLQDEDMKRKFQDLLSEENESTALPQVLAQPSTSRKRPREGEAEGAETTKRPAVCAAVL", "description": "as §1, §2"}, "DCAMKL2(h)": {"molecular_target": "T1, DCAMKL2(h) (Homo sapiens, UniProt Q8N568)", "T1 sequence (Q8N568 1-766)": "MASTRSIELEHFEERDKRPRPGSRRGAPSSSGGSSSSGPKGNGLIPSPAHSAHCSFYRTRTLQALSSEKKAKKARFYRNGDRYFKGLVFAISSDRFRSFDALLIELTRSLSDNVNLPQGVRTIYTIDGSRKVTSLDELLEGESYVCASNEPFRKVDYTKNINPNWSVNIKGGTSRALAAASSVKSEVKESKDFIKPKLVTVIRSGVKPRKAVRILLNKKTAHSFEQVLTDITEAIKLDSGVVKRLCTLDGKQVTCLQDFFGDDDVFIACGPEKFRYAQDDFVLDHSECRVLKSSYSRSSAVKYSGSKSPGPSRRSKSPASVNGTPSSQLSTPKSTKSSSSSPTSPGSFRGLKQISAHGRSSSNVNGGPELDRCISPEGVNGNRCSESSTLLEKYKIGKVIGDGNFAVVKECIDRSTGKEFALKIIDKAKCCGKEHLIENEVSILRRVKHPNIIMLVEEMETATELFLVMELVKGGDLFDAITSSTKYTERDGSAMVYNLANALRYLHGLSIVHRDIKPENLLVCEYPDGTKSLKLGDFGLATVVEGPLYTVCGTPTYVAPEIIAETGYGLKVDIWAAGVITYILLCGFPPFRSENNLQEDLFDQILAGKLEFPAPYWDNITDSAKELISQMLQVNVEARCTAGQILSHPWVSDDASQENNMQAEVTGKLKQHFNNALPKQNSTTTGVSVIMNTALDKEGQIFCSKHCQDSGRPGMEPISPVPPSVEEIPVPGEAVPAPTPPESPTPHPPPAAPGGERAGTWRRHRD", "description": "as §1, §2"}, "Flt1(h)": {"molecular_target": "Flt1(h) (Homo sapiens, UniProt P17948)", "sequence (P17948 27-1338)": "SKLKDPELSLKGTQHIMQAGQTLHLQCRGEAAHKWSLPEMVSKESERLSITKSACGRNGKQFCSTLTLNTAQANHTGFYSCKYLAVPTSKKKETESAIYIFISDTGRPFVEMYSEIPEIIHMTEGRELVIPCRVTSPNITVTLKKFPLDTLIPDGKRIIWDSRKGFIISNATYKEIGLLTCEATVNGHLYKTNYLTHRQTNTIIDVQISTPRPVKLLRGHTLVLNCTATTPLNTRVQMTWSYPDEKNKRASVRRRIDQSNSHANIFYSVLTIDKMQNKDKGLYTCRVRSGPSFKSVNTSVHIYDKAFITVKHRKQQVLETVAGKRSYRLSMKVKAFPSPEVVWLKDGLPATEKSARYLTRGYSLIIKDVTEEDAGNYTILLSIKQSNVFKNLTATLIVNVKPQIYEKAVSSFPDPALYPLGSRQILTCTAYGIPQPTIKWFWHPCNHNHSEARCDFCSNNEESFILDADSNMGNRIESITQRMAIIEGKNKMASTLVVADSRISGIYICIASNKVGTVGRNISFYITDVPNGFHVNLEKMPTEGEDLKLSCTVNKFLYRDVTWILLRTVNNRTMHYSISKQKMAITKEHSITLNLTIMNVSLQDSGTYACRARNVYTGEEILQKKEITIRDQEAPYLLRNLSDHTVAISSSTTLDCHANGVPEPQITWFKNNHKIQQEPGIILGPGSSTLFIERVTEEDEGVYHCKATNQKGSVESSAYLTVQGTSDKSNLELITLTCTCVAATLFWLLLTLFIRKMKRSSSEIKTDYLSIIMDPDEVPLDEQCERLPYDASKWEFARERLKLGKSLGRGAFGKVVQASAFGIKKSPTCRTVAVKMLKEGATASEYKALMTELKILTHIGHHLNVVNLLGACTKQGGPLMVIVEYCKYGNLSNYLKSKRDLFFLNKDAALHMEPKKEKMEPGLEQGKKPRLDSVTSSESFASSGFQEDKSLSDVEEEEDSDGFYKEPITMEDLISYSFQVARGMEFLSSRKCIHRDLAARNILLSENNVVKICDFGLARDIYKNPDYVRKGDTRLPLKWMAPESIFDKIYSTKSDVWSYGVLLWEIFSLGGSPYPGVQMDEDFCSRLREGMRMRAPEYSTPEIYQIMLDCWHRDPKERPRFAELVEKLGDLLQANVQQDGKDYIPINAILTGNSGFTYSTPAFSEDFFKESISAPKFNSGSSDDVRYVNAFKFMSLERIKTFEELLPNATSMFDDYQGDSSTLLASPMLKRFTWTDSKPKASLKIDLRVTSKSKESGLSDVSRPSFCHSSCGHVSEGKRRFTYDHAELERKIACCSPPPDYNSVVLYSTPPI", "description": "as §1, §2"}, "IKKβ(h)": {"molecular_target": "T2, IKKβ(h) (Homo sapiens, UniProt O14920)", "T2 construct": "purchased Millipore", "T2 sequence (O14920 1-756)": "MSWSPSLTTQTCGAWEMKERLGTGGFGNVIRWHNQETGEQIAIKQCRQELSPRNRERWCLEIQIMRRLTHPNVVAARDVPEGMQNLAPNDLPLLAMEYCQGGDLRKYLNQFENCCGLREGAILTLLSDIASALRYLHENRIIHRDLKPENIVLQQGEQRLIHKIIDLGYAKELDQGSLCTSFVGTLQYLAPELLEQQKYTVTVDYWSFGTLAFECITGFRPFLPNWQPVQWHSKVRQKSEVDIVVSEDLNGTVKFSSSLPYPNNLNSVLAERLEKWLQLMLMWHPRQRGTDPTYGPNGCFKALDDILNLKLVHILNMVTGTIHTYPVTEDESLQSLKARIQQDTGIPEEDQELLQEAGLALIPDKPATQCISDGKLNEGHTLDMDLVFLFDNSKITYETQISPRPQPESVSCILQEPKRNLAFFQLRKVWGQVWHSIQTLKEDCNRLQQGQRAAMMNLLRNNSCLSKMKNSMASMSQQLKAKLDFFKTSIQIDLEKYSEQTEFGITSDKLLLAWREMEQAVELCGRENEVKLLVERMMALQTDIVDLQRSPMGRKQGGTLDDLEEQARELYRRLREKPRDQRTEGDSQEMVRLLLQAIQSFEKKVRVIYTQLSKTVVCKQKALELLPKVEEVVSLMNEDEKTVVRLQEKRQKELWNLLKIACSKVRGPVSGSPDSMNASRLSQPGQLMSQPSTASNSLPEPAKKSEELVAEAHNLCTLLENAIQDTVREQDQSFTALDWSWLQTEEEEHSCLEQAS", "description": "as §1, §2"}, "IR(h), activated": {"molecular_target": "T3, IR(h), activated (Homo sapiens, UniProt P06213)", "T3 construct": "purchased Millipore", "T3 sequence (P06213 1005-1310 limits assumed)": "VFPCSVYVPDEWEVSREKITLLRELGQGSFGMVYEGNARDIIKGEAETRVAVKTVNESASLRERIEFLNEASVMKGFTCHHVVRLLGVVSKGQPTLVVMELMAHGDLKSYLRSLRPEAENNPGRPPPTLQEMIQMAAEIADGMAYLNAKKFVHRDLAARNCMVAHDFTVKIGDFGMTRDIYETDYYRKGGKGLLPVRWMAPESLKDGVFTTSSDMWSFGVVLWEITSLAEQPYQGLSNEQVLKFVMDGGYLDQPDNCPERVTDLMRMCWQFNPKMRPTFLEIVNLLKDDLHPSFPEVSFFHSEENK", "description": "as §1, §2"}, "MLK1(h)": {"molecular_target": "MLK1(h) (Homo sapiens, UniProt P80192)", "sequence (P80192 whole entry)": "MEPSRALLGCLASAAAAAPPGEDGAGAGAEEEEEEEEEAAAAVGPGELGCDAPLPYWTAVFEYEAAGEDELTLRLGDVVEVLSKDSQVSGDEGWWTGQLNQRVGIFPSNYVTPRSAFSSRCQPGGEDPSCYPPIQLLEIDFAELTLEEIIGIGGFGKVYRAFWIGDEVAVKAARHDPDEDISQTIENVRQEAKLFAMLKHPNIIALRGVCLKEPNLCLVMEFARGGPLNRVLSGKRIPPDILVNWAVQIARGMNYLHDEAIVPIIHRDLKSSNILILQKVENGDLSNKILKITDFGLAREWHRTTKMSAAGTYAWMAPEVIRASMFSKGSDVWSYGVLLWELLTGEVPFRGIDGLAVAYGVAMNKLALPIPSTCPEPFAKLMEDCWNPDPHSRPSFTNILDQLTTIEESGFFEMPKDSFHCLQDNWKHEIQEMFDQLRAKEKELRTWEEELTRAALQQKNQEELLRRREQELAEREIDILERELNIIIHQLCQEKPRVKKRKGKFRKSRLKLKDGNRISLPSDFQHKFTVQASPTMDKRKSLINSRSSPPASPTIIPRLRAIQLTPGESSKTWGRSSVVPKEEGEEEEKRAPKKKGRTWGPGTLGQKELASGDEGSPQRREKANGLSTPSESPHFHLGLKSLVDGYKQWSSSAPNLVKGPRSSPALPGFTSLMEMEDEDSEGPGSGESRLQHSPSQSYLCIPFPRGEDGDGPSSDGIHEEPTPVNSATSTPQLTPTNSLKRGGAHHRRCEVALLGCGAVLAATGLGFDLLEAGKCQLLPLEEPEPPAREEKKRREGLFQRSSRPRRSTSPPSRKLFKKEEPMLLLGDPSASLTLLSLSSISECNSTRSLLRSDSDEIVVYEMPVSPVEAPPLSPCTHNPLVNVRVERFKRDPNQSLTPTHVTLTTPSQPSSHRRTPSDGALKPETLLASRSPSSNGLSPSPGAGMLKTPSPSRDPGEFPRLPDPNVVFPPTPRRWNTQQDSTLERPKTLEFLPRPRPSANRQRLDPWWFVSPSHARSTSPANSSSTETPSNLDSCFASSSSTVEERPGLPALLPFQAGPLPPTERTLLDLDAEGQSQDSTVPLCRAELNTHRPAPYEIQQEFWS", "description": "as §1, §2"}, "Mer(h)": {"molecular_target": "T4, Mer(h) (Homo sapiens, UniProt Q12866)", "T4 sequence (Q12866 21-999)": "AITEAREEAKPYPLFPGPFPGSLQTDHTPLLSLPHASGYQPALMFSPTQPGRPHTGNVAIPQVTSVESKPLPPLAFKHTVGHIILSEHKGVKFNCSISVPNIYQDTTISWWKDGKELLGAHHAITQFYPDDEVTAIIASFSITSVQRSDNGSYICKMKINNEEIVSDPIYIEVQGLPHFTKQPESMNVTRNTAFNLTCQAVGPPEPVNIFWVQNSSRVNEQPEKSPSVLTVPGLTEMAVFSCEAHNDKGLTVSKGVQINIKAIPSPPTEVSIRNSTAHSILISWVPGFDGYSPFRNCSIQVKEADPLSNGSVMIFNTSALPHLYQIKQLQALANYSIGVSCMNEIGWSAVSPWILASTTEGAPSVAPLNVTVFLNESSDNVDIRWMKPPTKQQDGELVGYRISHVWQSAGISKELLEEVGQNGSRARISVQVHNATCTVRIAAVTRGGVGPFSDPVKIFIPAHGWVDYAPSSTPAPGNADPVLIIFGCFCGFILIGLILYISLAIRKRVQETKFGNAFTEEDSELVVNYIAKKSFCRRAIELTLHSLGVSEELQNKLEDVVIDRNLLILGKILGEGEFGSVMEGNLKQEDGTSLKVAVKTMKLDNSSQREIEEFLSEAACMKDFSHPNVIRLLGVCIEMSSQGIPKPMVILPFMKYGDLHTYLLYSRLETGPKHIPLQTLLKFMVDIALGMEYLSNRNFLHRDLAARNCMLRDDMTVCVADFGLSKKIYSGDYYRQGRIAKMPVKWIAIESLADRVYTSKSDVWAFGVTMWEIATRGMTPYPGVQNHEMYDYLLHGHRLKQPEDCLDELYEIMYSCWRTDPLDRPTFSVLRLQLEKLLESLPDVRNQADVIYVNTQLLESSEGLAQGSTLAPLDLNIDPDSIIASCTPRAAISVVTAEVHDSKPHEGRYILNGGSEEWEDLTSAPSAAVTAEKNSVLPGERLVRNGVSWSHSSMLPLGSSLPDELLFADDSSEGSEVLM", "description": "as §1, §2"}, "Plk3(h)": {"molecular_target": "T5, Plk3(h) (Homo sapiens, UniProt Q9H4B4)", "T5 construct": "purchased Millipore (IC50 Profiler Express service)", "description": "as §1, §2"}}, "data": [{"sequence": "HRRIKAWLKKIKALARQLGVAA (Mammalian) [MMI-0500]", "values": [{"measurement": "CDK1/cyclinB(h) % activity", "setting": "CDK1/cyclinB(h)", "value": 57, "unit": "%"}, {"measurement": "CHK2(I157T)(h) % activity", "setting": "CHK2(I157T)(h)", "value": 3, "unit": "%"}, {"measurement": "DCAMKL2(h) % activity", "setting": "DCAMKL2(h)", "value": 56, "unit": "%"}, {"measurement": "Flt1(h) % activity", "setting": "Flt1(h)", "value": 27, "unit": "%"}, {"measurement": "IKKβ(h) % activity", "setting": "IKKβ(h)", "value": 71, "unit": "%"}, {"measurement": "IR(h), activated % activity", "setting": "IR(h), activated", "value": 90, "unit": "%"}, {"measurement": "MLK1(h) % activity", "setting": "MLK1(h)", "value": 43, "unit": "%"}, {"measurement": "Mer(h) % activity", "setting": "Mer(h)", "value": 17, "unit": "%"}, {"measurement": "Plk3(h) % activity", "setting": "Plk3(h)", "value": 122, "unit": "%"}]}, {"sequence": "KAFAKLAARLYRKALARQLGVAA [MMI-0400]", "values": [{"measurement": "CDK1/cyclinB(h) % activity", "setting": "CDK1/cyclinB(h)", "value": 74, "unit": "%"}, {"measurement": "CHK2(I157T)(h) % activity", "setting": "CHK2(I157T)(h)", "value": 41, "unit": "%"}, {"measurement": "DCAMKL2(h) % activity", "setting": "DCAMKL2(h)", "value": 70, "unit": "%"}, {"measurement": "Flt1(h) % activity", "setting": "Flt1(h)", "value": 48, "unit": "%"}, {"measurement": "IKKβ(h) % activity", "setting": "IKKβ(h)", "value": 84, "unit": "%"}, {"measurement": "IR(h), activated % activity", "setting": "IR(h), activated", "value": 59, "unit": "%"}, {"measurement": "MLK1(h) % activity", "setting": "MLK1(h)", "value": 33, "unit": "%"}, {"measurement": "Mer(h) % activity", "setting": "Mer(h)", "value": 50, "unit": "%"}, {"measurement": "Plk3(h) % activity", "setting": "Plk3(h)", "value": 129, "unit": "%"}]}, {"sequence": "FAKLAARLYRKALARQLGVAA [MMI-0300]", "values": [{"measurement": "CDK1/cyclinB(h) % activity", "setting": "CDK1/cyclinB(h)", "value": 73, "unit": "%"}, {"measurement": "CHK2(I157T)(h) % activity", "setting": "CHK2(I157T)(h)", "value": 43, "unit": "%"}, {"measurement": "DCAMKL2(h) % activity", "setting": "DCAMKL2(h)", "value": 81, "unit": "%"}, {"measurement": "Flt1(h) % activity", "setting": "Flt1(h)", "value": 69, "unit": "%"}, {"measurement": "IKKβ(h) % activity", "setting": "IKKβ(h)", "value": 84, "unit": "%"}, {"measurement": "IR(h), activated % activity", "setting": "IR(h), activated", "value": 79, "unit": "%"}, {"measurement": "MLK1(h) % activity", "setting": "MLK1(h)", "value": 40, "unit": "%"}, {"measurement": "Mer(h) % activity", "setting": "Mer(h)", "value": 52, "unit": "%"}, {"measurement": "Plk3(h) % activity", "setting": "Plk3(h)", "value": 127, "unit": "%"}]}, {"sequence": "YARAAARQARAKALNRQLGVA (Mammalian) [MMI-0200]", "values": [{"measurement": "CHK2(I157T)(h) % activity", "setting": "CHK2(I157T)(h)", "value": 85, "unit": "%"}, {"measurement": "DCAMKL2(h) % activity", "setting": "DCAMKL2(h)", "value": 131, "unit": "%"}, {"measurement": "Flt1(h) % activity", "setting": "Flt1(h)", "value": 96, "unit": "%"}, {"measurement": "MLK1(h) % activity", "setting": "MLK1(h)", "value": 84, "unit": "%"}, {"measurement": "Mer(h) % activity", "setting": "Mer(h)", "value": 90, "unit": "%"}]}]}
